According to patent US20230183665A1, “THERMOSTABLE GLUCOCEREBROSIDASE” (TEIKYO UNIVERSITY, priority 2020, published 2023):

T1: RGC1 (Oryza sativa subsp. japonica, UniProt Q8L7J2)
T1 construct: The resulting solution was used as rice-derived glucocerebrosidase (RGC1); from tissue; host or cells: stems of rice (Oryza sativa L. cv. Nipponbare)
T1 sequence (Q8L7J2 38-521 limits assumed): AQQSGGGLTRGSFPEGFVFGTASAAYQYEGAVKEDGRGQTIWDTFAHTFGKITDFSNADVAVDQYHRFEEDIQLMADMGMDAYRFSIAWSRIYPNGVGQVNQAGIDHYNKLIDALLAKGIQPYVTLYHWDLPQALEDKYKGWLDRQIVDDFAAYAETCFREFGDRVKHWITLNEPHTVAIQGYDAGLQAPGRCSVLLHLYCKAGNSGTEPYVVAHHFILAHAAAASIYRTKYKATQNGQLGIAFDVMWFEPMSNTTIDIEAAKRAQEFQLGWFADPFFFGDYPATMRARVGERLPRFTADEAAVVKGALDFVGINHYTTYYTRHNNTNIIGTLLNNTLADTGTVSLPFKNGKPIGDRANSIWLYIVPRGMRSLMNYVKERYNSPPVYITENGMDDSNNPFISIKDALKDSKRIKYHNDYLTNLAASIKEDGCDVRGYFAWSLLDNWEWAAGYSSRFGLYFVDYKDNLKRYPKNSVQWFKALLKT

B1: SGC1: soybean-derived glucocerebrosidase purified from soybean stems; identical to β-glucosidase 40, belongs to GH1; SEQ ID NO: 2 (protein)
chain: MAFRGGTMLILTMMALLEIQICSSEINRGNFPNGFVFGTASSAFQYEGAVKEDGRGPSVWDTFSHTFGKIIDFSNADVAVDQYHRYEEDIQLMKDMGMDAYRFSISWSRIFPNGYGQINQAGVDHYNKLINALLAKGIEPYVTLYHWDLPQALENKYSGWLNASIIMDFATYAETCFQKFGDRVKHWITFNEPHTFATQGYDVGLQAPGRCSILLHLFCRAGNSATEPYIVAHNVLLSHATVADIYRKKYKKIQGGSLGVAFDVIWYEPLTNTKEDIDAAQRAQDFQLGWFLDPLMFGDYPSSMRTRVGSRLPKFSQSEAALVKGSLDFVGINHYTTFYAKDNSTNLIGTLLHDSIADSGAVTLPFNGTKAISERASSIWLYIVPQSMRSLMIYIKQKYGNPPVYITENGMDDPNSIFISIKDALKDEKRIRYHTGYLSYLLASIKDGCNVKGYFVWSLLDNWEWSAGYTSRFGLYFVDYKDNLKRYPKQSVEWFKNFLKPTK
modifications: Oryza sativa L. cv. Nipponbare
B2: Imiglucerase: human-derived glucocerebrosidase produced in Chinese hamster ovary cells by gene recombination (Sanofi S. A.), belonging to GH30 (protein, UniProt P04062 40-536, looked up)
Lysosomal acid …: ARPCIPKSFGYSSVVCVCNATYCDSFDPPTFPALGTFSRYESTRSGRRMELSMGPIQANHTGTGLLLTLQPEQKFQKVKGFGGAMTDAAALNILALSPPAQNLLLKSYFSEEGIGYNIIRVPMASCDFSIRTYTYADTPDDFQLHNFSLPEEDTKLKIPLIHRALQLAQRPVSLLASPWTSPTWLKTNGAVNGKGSLKGQPGDIYHQTWARYFVKFLDAYAEHKLQFWAVTAENEPSAGLLSGYPFQCLGFTPEHQRDFIARDLGPTLANSTHHNVRLLMLDDQRLLLPHWAKVVLTDPEAAKYVHGIAVHWYLDFLAPAKATLGETHRLFPNTMLFASEACVGSKFWEQSVRLGSWDRGMQYSHSIITNLLYHVVGWTDWNLALNPEGGPNWVRNFVDSPIIVDITKDTFYKQPMFYHLGHFSKFIPEGSQRVGLVASQKNDLDAVALMHPDGSAVVVVLNRSSKDVPLTIKDPAVGFLETISPGYSIHTYLWRRQ
modifications: imiglucerase
notes: human-derived glucocerebrosidase produced in Chinese hamster ovary cells by gene recombination (Sanofi S. A.), belonging to GH30

How the values were obtained:
RGC1 = molecular target: T1, RGC1; experiment: Substrate specificity of RGC1: ceramide generated from glucosylceramide or synthetic β-glucoside substrates (Example 3); format: biochemical, rice (Oryza sativa L. cv. Nipponbare); conditions: enzyme RGC1, 12.5 μM substrate, pH 5.5, 37° C., 15 minutes; for Relative activity (%): activity with d18:1(4E)-C8:0-GluCer defined as 100, average of five tests
Protocol: (§1) The glucocerebrosidase activity of the fraction was measured as follows: a predetermined amount of sample was added to a 50 mM acetate buffer solution (pH 5.5) containing 100 μM glucosylceramide (cerebroside B), 0.1% Tween 20, and 0.05% sodium cholate, and incubated at 37° C. for 15 minutes. Subsequently, a 4-fold amount of ethanol was added to the obtained reaction solution, mixed therewith, and then centrifuged at 15000 rpm for 20 minutes. The centrifuged supernatant was subjected to high-performance liquid chromatography analysis. In the high-performance liquid chromatography analysis, the sample was injected to TSKgel ODS-120T column (4.6 mm×30 cm), and a solvent having an ethanol concentration of 83% was flowed at a flow rate of 0.8 mL/min, followed by detection in a UV detector (ultraviolet absorption wavelength: 215 nm) to thereby measure the amount of ceramide newly generated through enzymatic reaction. The amount of ceramide was determined by using, as a standard, ceramide generated from cerebroside B by imiglucerase (manufactured by Sanofi S. A.), human-derived glucocerebrosidase. The molecular weight of the generated ceramide was examined by negative LC-MS (manufactured by Agilent Technologies, Inc.) to thereby confirm that it was ceramide generated from cerebroside B (ESI-MS m/z: 564.5[M-H]^−). Glucocerebrosidase activity per mL of the enzyme solution was calculated when the amount of the enzyme that generated 1 μmol of ceramide for 1 minute in the enzymatic reaction solution was defined as 1 unit (U).
RGC1 obtained in Example 2 was added to 12.5 μM glucosylceramide (one of the 12 animal-derived, plant-derived, or filamentous fungus-derived ones in Table 2 below) or synthetic β-glucoside, and a 50 mM acetate buffer solution (pH 5.5) containing 0.1% Tween 20 and 0.05% sodium cholate, and incubated at 37° C. for 15 minutes. Subsequently, a 4-fold amount of ethanol was added to the obtained reaction solution, mixed therewith, and then centrifuged under a condition of 15000 rpm for 20 minutes. The amount of ceramide in the supernatant was measured by high-performance liquid chromatography using various reverse-phase columns to thereby determine glucocerebrosidase activity. The amount of ceramide was determined by using, as a standard, ceramide generated from the glucosylceramide by imiglucerase. The glucocerebrosidase activity was determined as relative activity when activity in the case of using animal-derived glucosylceramide d18:1(4E)-C8:0-GluCer as a substrate was defined as 100 (rightmost column of Table 2 below). This test was conducted five times, and average relative activity was determined therefrom.

[1] = Optimum temperature for glucocerebrosidase activity (Examples 5, 12, 20); format: biochemical
Protocol: as §1
RGC1 obtained in Example 2 and imiglucerase were each added to a 50 mM acetate buffer solution (pH 5.5) containing 100 μM glucosylceramide (cerebroside B), 0.1% Tween 20, and 0.05% sodium cholate, and incubated at each temperature for 15 minutes. Subsequently, a 4-fold amount of ethanol was added to the obtained reaction solution, mixed therewith, and then centrifuged under a condition of 15000 rpm for 20 minutes. The supernatant was subjected to high-performance liquid chromatography analysis to measure the amount of ceramide generated through enzymatic reaction. The high-performance liquid chromatography analysis was carried out in the same manner as in Example 2. The amount of ceramide and enzymatic activity were also calculated in the same manner as in Example 2. A temperature that attained the highest glucocerebrosidase activity was regarded as the optimum temperature. This test was conducted three times, and an average value was determined therefrom.
The optimum temperatures for the glucocerebrosidase activity of SGC1 obtained in Example 11 and imiglucerase were confirmed by the same method as in Example 5.
Enzyme extracts derived from various plants which were obtained in accordance with Example 19, the purified rice-derived RGC1 mentioned above and the purified soybean-derived SGC1 mentioned above were each added to a 50 mM sodium acetate buffer solution (pH 5.5) containing 100 μM glucosylceramide (cerebroside B), 0.1% Tween 20, and 0.05% sodium cholate, and incubated at each temperature for 15 minutes. Subsequently, a 4-fold amount of ethanol was added to the obtained reaction solution, mixed therewith, and then centrifuged at 15000 rpm for 20 minutes. The supernatant was subjected to high-performance liquid chromatography analysis to measure the amount of ceramide generated through enzymatic reaction. The high-performance liquid chromatography analysis was carried out in the same manner as in Example 5. The amount of ceramide and enzymatic activity were also calculated in the same manner as in Example 5. As a result, a temperature that attained the highest glucocerebrosidase activity was regarded as the optimum temperature. This test was conducted three times, and an average value was determined therefrom.

[2] = Thermostability: relative residual glucocerebrosidase activity after incubation at pH 5 and pH 7 (Examples 6, 13); format: physicochemical; conditions: 45° C.; pH 5 for 1 to 31 hours, pH 7 for 0.3 to 5 hours; FIGS. 3 and 4
Protocol: The glucocerebrosidase activity of the fraction was measured as follows: a predetermined amount of sample was added to a 50 mM acetate buffer solution (pH 5.5) containing 100 μM glucosylceramide (cerebroside B), 0.1% Tween 20, and 0.05% sodium cholate, and incubated at 37° C. for 15 minutes. Subsequently, a 4-fold amount of ethanol was added to the obtained reaction solution, mixed therewith, and then centrifuged at 15000 rpm for 20 minutes. The centrifuged supernatant was subjected to high-performance liquid chromatography analysis. […] The amount of ceramide was determined by using, as a standard, ceramide generated from cerebroside B by imiglucerase (manufactured by Sanofi S. A.), human-derived glucocerebrosidase. […] Glucocerebrosidase activity per mL of the enzyme solution was calculated when the amount of the enzyme that generated 1 μmol of ceramide for 1 minute in the enzymatic reaction solution was defined as 1 unit (U).
RGC1 obtained in Example 2 and imiglucerase were each incubated at pH 5 simulating lysosome (50 mM acetate buffer solution (pH 5.0) containing 0.1% Triton X-100 and 0.05% sodium cholate) at 37° C. for 6 to 106 hours or at pH 7 simulating cytoplasm (50 mM potassium phosphate buffer solution (pH 7.0) containing 0.1% Triton X-100 and 0.05% sodium cholate) at 37° C. for 4 to 48 hours. […] This test was conducted three times, and an average value was determined therefrom. […]

[3] = Example 12, same method as Example 5
[4] = Example 20, 100 μM cerebroside B, pH 5.5, 15 minutes at each temperature, average of three tests

Molecule	reaction of RGC1 with the substrate (in words) (RGC1)	Relative activity (%) (RGC1)	Optimum temperature (° C.) [1, 3] [°C]	Optimum temperature (° C.) [1, 4] [°C]	also measured
CCCCCCCCCCCCC/C=C/[C@@H](O)[C@H](CO[C@@H]1O[C@H](CO)[C@@H](O[C@@H]2O[C@H](CO)[C@H](O)[C@H](O[C@]3(C(=O)O)C[C@H](O)[C@@H](NC(C)=O)C([C@H](O)[C@H](O)CO)O3)[C@H]2O)[C@H](O)C1O)NC(=O)CCCCCCCCCCCCCCCCC (some centres unmarked) [d18:1(4E)-C18:0-GM3]	rarely reacted	–	–	–	–
CCCCCCCCCCCCCC[C@@H](O)C(=O)N[C@@H](CO[C@@H]1O[C@H](CO)[C@@H](O)[C@H](O)[C@H]1O)[C@H](O)/C=C/CC/C=C(\C)CCCCCCCCC [d19:2(4E,8E,9Me)-C16h:0-GluCer, (4E,8E)-N-D-2′-hydroxypalmitoyl-1-O-β-D-glucopyranosyl-9-methyl-4,8-sphingadienine]	–	116.7	–	–	–
CCCCCCCCCCCCCC/C=C/[C@@H](O)C(=O)N[C@@H](CO[C@@H]1O[C@H](CO)[C@@H](O)[C@H](O)[C@H]1O)[C@H](O)/C=C/CC/C=C(\C)CCCCCCCCC [d19:2(4E,8E,9Me)-C18h:1-GluCer, (4E,8E)-N-D-2′-hydroxy-(E)-3′-octadecenoyl-1-O-β-D-glucopyranosyl-9-methyl-4,8-sphingadienine]	–	113.2	–	–	–
O=[N+]([O-])c1ccc(O[C@@H]2O[C@H](CO)[C@@H](O)[C@H](O)[C@H]2O)cc1 [pNP-β-glucoside, 4-nitrophenyl-β-D-glucopyranoside]	rarely reacted	2.5	–	–	–
B1	–	–	64.0	64.0	stability (relative residual activity) compared with imiglucerase [2]: evidently much superior in stability to imiglucerase
B2	–	–	42.5	42.5	Optimum temperature (° C.) ([1]; Example 5, 100 μM cerebroside B, pH 5.5, 15 minutes at each temperature, average of three tests): 42.5 °C
